First the molecules themselves.
T1: human CD96 short isoform v2 expressed on CHO cells (human, UniProt P40200 22-585)
T1 construct: also called hCD96v2; CD96v2; not shown: C-terminal HA-tag
T1 sequence: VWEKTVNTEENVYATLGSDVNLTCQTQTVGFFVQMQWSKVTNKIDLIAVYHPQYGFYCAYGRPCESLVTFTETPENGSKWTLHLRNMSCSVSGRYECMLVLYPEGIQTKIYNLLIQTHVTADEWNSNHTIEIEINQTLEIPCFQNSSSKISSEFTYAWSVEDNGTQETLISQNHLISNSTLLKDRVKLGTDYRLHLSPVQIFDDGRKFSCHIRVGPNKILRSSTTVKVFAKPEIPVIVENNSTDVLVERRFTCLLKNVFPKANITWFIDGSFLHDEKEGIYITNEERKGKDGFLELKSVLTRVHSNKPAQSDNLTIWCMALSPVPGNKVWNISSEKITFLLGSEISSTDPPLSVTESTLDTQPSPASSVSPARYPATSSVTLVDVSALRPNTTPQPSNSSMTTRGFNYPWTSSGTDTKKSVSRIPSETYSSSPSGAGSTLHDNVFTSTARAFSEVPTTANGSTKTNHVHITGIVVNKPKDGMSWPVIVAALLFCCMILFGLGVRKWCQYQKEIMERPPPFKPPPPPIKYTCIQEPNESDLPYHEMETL

T2: mouse CD96 expressed on CHO cells (mouse, UniProt Q3U0X8 22-602)
T2 construct: whole, on cells; also called mCD96
T2 sequence (looked up): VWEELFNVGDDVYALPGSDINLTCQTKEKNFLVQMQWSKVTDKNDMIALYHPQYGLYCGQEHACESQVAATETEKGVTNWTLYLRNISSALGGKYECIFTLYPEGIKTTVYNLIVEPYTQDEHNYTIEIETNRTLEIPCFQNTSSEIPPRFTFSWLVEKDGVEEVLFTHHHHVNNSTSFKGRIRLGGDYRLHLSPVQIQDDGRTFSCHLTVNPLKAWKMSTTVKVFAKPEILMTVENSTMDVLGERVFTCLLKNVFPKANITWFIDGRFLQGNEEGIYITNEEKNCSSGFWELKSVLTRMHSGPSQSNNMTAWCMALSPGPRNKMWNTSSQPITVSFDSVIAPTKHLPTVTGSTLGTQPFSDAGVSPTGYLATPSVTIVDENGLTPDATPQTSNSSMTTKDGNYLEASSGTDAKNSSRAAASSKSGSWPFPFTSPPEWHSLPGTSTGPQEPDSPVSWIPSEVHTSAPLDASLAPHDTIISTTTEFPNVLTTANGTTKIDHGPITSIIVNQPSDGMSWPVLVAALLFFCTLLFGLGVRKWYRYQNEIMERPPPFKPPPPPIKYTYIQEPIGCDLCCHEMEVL

T3: rhesus CD96 transiently expressed on CHO cells (rhesus, UniProt P40200 22-585 (human entry))
T3 construct: also called rhesus CD96, short isoform
T3 chain: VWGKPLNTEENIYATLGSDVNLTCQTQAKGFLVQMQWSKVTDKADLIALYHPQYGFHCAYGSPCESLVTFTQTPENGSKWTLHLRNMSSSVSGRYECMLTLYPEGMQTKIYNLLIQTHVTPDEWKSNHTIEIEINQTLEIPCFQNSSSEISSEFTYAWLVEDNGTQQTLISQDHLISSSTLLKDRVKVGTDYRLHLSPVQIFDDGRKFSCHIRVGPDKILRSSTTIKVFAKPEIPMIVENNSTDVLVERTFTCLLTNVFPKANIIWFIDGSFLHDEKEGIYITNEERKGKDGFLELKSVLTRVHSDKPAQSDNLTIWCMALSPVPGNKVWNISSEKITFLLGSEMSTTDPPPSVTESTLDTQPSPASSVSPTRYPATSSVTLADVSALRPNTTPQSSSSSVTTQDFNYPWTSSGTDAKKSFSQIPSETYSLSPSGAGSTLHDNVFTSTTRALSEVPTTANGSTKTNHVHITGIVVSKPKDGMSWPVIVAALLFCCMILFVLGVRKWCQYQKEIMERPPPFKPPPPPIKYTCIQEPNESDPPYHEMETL

B1: BL006-4-52G6-52K7 (antibody, V domains shown)
VH: QVQLQQPGAELVKPGASVKLSCKASGYSFTSYWMHWVKQRPGQGLEWIGQIDPSDSYTNYNQKFKGKATLTVDKSSSTAYMQLSSLTSEDSAVYYCASGNYGPYLGNYFDYWGQGTTLTVPS
VL: DIVMSQSPSSLVVSVGEKVTMSCKSSQSLLHSTNQKNYLAWYQQKPGQSPKLLIYWASTRESGVPDRFTGSGSGTDFTLTISSVKAEDLVVYYCQQYYNYPYTFGGGTKLEIK
notes: Recombinant mIgG2a/kappa (also made as mIgG2a-D265A); also called BL006-4-52G6-52K7 #4; candidate NO 2
B2: BL006-4-31G1-31K3 (antibody, V domains shown)
VH: QVQLQQSGPELVKPGASVKISCKTSGFTFTDYYINWVKQRPGQGLEWIGWIFPGSGSSFYSEIFKGQATLTVDKSSSTAYMLLSSLTSEDSAVYFCARRNYYGYGAYAMDYWGQGTSVTVSS
VL: DIQMNQSPSSLSASLGDTITITCRASQSINFWLSWYQQKPGNIPKLLIYKASNLHTGVPSRFSGSGSGTDFTLTISSLQPEDIATYYCLQGQSYPLTFGGGTKLEIK
notes: Recombinant mIgG2a/kappa (also made as mIgG2a-D265A); also called candidate NO 10
B3: BL006-9-15G1-15K5 (antibody, V domains shown)
VH: QAYLQQSGAELVRPGASVKMSCKASGYTFTSYNMHWVKQTPRQGLEWIGAVIPGNGDSFYNQKFKGKATLTVDKSSSTAYMQLSSLTSEDSAVYFCGRSSSGCIAYWGQGTLVTVSA
VL: DIVLTQSPASLAVSLGQRATISCRVSGSVDYDGDSYMNWYQQKPGQPPKLLIYAASNLESGIPARFSGSGSETDFTLNIHPVEEEDAATYYCLQSNEAPWTFGGGTKVEIK
notes: Recombinant mIgG2a/kappa (also made as mIgG2a-D265A); also called candidate NO 12
B4: BL006-19-352G9-352K8 (antibody, V domains shown)
VH: QVQLQQPGAELVKPGASVKLSCKASGYTFTSYWMHWVKQRPGQGLEWIGMIHPNGDITDYNEKFKSKATLAVDESSSTAFMQLNSLTSEDSAFYYCARASYYGSLYWGQGTTLTVSS
VL: DIVMTQSQKFMSTSVGDRVSVTCKASQNVGIAVAWYQKKPGQSPKTLIYSASTRYTGVPDRFTGSGSGTDFTLTINDVQSEDLADYFCQQYGSSPLTFGAGTKLELK
notes: Recombinant mIgG2a/kappa (also made as mIgG2a-D265A); also called candidate NO 17
B5: BL006-19-370G9-370K16 (antibody, V domains shown)
VH: QVQLQQSGAELGRPGTSVKMSCKAAGYTFTNYWIGWVKQRPGHGLEWIGDIYPGGGYTNYNEKFKGKATLTADTSSSTAYIQLSSLTSEDSAIYYCARSGYYDGSPLAMDYWGQGTSVTVS
VL: QIVLTQSPTIMSASPGEKVTMTCSASSSVSYMHWYQQKSGTSPKRWIYDTSKLASGVPARFSGSGSGTSYSLTISSMEAEDAATYYCQQWSSNPPTFGSGTKLEIK
notes: Recombinant mIgG2a/kappa (also made as mIgG2a-D265A); also called candidate NO 19
B6: BL006-4-20G5-20K5 (antibody, V domains shown)
VH: EVQLAESGGDLVTPGGSLKLSCAASGFTFSSYGMSWVRQTPDKRLEWVATITHGGSYIYYPDSVKGRFTLSRDNAKNTLYLQMSSLKSEDTAMYYCIRHADYARFAYWGQGTLVTVSA
VL: DIQMTQTTSSLSASLGDRVTISCRPSQDISNYLNWYQQKPDGTVKLLIYYTSRLHSGVPSRFSGSGSGTDYSLTISNLEQEDIATYFCQQGNTLPWTFGGGTKLEIK
notes: Recombinant mIgG2a/kappa (also made as mIgG2a-D265A); also called BL006-4-20G5-20K5 #1; candidate NO 1
B7: BL006-19-134G5-134K4 (antibody, V domains shown)
VH: QVQLQQPGAELVKPGASVKLSCKASDYTFTTYWMHWVKQRPGQGLEWIGMIHPNSDTTLYNEKFRSQATLTVDKSSSTAYIQLSRLTSEDSAVYYCVVTGTNFDYWGQGTTLAVSS
VL: QVVLTQSPAIMSASPGEKVTMTCSATSSVSYMYWYQQKPGSSPKPWIYRTSNLASGVPVRFSGSGSGTSYSLTISSMEAEDAATYYCQQWSSNPLTFGGGTKLELK
notes: Recombinant mIgG2a/kappa (also made as mIgG2a-D265A); also called BL006-19-134G5-134K4 #2; candidate NO 7
B8: BL006-19-363G1-363K1 (antibody, V domains shown)
VH: B7 VH with D26G, M34I, H52L, D56G, L59I, T78A, I81M, V97A, A113T
VL: B7 VL with V2I, T26S, S66F, S76N, G99T
notes: Recombinant mIgG2a/kappa (also made as mIgG2a-D265A); also called candidate NO 18

Where a chain is given by its changes, count along the chain named. Names and notes keep the numbering of the source.

For one test, the target named is T1, human CD96 short isoform v2 expressed …. The experiment in a line: FCM, inhibition of hCD155-Fc binding to hCD96v2-CHO cells. The protocol: All candidates except BL006-2-19 that bound very weakly on hCD96v2 by FCM were tested for their capacity to inhibit the binding of human CD155 to hCD96v2 stably expressed on CHO cells. Human CD96-transfected CHO cells (3×10⁵ cells/well of 96-well plate) were incubated at +4° C. for 30 minutes with serial dilutions of anti-CD96 antibodies or isotype control antibody (in mIgG2a or mIgG2aD265A format) in the presence of 4 μg/mL of biotinylated hCD155-Fc (produced and biotinylated at BliNK).
% inhibition=(1−(MFI_wAb&CD155−MFI_CHO)/(MFI_wCD155−MFI_CHO))×100, where MFI_wAb&CD155 is the Mean Intensity Fluorescence (MFI) obtained with the hCD96-CHO cells incubated with the tested antibody and hCD155-hFc; MFI_CHO is the MFI obtained in the absence of hCD155 and mAbs; and MFI_wCD155 is the fluorescence with hCD155 but without pre-incubation with antibody (0% CD155 binding inhibition). The % of inhibition was plotted against antibody concentration and the IC50 values were calculated by using a nonlinear regression analysis model of the GraphPad Prism software.
On to B1, for which the “Maximal Inhibition Capacity (%)” value is below 5%.

B2: the IC50 turned out to be 16.8 nM and the “Maximal Inhibition Capacity (%)” value came out at 100%.

In the case of B3, the “Maximal Inhibition Capacity (%)” value was below 5%.

The target is the same in a further test. The experiment in a line: FCM on hCD96v2-CHO cells. The protocol:
FIG. 6: Binding profiles of anti-hCD96 antibodies on human CD96-transfected CHO cells (hCD96v2, short isoform). CHO cells expressing hCD96v2 were incubated with serial dilution of the indicated mIgG1 or mIgG2a anti-CD96 or isotype control antibodies. […] The results are expressed as the difference of mean fluorescence intensity (delta MFI) between cells stained with antibodies and cells without antibodies. Dose response curves were obtained from GraphPad prism software using a non-linear regression fit with a variable slope model (4 parameters). To simplify the reading, results from the various anti-hCD96 candidates are shown on 4 different panels.
The capacity of the identified mouse anti-CD96 antibodies to recognize the cell membrane expressed human CD96 was further analyzed by flow cytometry (FCM) by using CHO cells stably transfected with the CD96 short isoform v2 (CD96v2; Genbank accession number NM_005816, flanked in C-terminus with HA-tag) (SEQ ID NO: 268).
Mouse anti-CD96 antibodies and isotype control antibodies were incubated at various concentrations from 10 μg/mL to 4.6 ng/mL with CHO cells expressing human CD96 at +4° C. for 30 minutes. […] The differences between the mean fluorescence intensity (MFI) obtained for each of the antibody concentration and the intensity obtained in absence of primary antibody (delta-MFI), were calculated and plotted against the concentrations of antibodies.
Regarding B1, the EC50 was determined as 13.4 nM and the “Maximum binding (delta MFI)” value stood at 493000 delta MFI.

Consider B2, for which the midpoint of the response, the EC50, lay at 4.82 nM and the “Maximum binding (delta MFI)” value is 723000 delta MFI.

B3: the EC50 was 14.3 nM and the “Maximum binding (delta MFI)” value came to 42000 delta MFI.

Another test addresses T2, mouse CD96 expressed on CHO cells. The experiment in a line: FCM on CHO cells expressing mouse CD96. The text has this: (§1) The capacity of the identified mouse anti-human CD96 antibodies to recognize the CD96 protein from other species was further analyzed by flow cytometry by using CHO cells expressing the mouse or the rhesus CD96. The expression of the species-specific CD96 on CHO cell surface was confirmed by using staining with appropriate anti-CD96 antibodies and flow cytometry on non-fixed cells. The rat anti-mCD96 antibody clone #630612 (R&D Systems) and the candidate BL006-9-1 (positive by ELISA on rhesus CD96) were used to confirm the expression of rhesus CD96, while the clone 6A6 (rat IgG2a, e-Bioscience) was used to verify the expression of mouse CD96.
(§2) Mouse anti-CD96 antibodies and isotype control antibodies were incubated at 10 or 1 μg/mL with CHO cells expressing different CD96 species at +4° C. for 30 minutes.
As to B4, the binding result is “no binding (tested: 1 and 10 µg/mL)”.

Consider B1, for which the binding result is “no binding (tested: 1 and 10 µg/mL)”.

B5: the binding result was “no binding (tested: 1 and 10 µg/mL)”.

In the case of B2, the binding result was “no binding (tested: 1 and 10 µg/mL)”.

For B6, the binding result was “no binding (tested: 1 and 10 µg/mL)”.

As to B7, the binding result was “no binding (tested: 1 and 10 µg/mL)”.

As to B8, the binding result was “no binding (tested: 1 and 10 µg/mL)”.

Another test deals with T3, rhesus CD96 transiently expressed on …. The experiment in a line: flow cytometry on CHO cells transiently expressing rhesus CD96; antibody at 1 (thin line) and 10 µg/ml (thick dashed line), filled grey = isotype control. The protocol:
FIG. 7: Binding profiles of anti-CD96 antibodies on CHO cells transfected with rhesus CD96. Anti-CD96 antibodies or the corresponding isotype control mAbs were tested for their capacity to recognize rhesus CD96 transiently expressed on CHO cells by flow cytometry. Each histogram represents the overlay of the fluorescence intensity obtained for each antibody tested at 1 (black line) and 10 μg/ml (thick dashed black line) and compared to the fluorescence obtained with an isotypic control (filled grey histogram).
as §1, §2
A general note: A flow cytometer gives signals particle by particle.
Take B4: the binding result is reported as “binds”.

As for B1, the binding result was “binds”.

B5: the binding result is “no binding (tested: 10 µg/ml)”.

B2: the binding result was “binds”.

As to B6, the binding result was “no binding (tested: 10 µg/ml)”.

Turning to B7, the binding result is given as “no binding (tested: 10 µg/ml)”.

Turning to B8, the binding result is on record as “no binding (tested: 10 µg/ml)”.

As a reminder, the IC50 is the concentration at which inhibition is half-maximal. Read a low IC50 as greater potency. Broadly, the EC50 is the midpoint of the concentration-response curve. Low values mean greater potency, high ones weaker potency.

These data come from patent US20230192845A1 (BLINK BIOMEDICAL, published 2023).
